The values that follow come from US20160356775.

For series [1], the target named is T1, GST-recombinant human FoXO3a, O43524.
T1 chain: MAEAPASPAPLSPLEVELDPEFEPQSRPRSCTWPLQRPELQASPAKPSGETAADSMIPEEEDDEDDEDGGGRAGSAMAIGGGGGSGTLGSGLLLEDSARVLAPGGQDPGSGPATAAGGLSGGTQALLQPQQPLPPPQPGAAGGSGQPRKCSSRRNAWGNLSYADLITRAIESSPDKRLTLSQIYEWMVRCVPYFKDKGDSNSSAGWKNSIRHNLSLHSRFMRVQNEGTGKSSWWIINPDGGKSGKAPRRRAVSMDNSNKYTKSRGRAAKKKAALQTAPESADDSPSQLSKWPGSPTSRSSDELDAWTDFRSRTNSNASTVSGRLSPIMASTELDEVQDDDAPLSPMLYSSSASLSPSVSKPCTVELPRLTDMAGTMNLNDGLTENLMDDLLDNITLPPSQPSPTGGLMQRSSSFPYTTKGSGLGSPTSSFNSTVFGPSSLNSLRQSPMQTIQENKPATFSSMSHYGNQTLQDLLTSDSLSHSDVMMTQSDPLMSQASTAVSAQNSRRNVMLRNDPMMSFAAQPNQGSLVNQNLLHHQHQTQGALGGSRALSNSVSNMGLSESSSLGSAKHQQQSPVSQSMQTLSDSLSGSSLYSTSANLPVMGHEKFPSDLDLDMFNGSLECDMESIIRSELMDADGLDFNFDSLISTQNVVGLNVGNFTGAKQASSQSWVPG

Series [2] addresses T2, full length recombinant human ERα protein (Invitrogen), P03372.
T2 chain: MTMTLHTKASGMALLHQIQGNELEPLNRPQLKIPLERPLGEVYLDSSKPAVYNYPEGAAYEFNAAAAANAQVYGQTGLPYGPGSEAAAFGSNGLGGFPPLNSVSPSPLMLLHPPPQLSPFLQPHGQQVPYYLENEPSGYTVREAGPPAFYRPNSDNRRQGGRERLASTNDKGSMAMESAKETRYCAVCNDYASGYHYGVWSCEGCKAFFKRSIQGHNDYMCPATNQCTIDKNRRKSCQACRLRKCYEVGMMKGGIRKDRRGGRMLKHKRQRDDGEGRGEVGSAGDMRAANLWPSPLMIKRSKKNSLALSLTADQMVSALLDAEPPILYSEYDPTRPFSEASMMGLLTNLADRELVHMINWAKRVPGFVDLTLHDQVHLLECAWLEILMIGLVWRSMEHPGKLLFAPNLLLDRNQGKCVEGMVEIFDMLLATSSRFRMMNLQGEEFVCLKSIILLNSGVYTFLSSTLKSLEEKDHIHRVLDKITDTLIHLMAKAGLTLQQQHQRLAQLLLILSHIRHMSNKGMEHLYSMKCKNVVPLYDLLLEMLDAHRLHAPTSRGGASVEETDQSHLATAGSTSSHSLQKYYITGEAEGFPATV

Series [3] deals with recombinant PKC (Promega).

B1: recombinant LMTK3 kinase domain (protein)
chain: LSYLQEIGSGWFGKVILGEIFSDYTPAQVVVKELRASAGPLEQRKFISEAQPYRSLQHPNVLQCLGLCVETLPFLLIMEFCQLGDLKRYLRAQRPPEGLSPELPPRDLRTLQRMGLEIARGLAHLHSHNYVHSDLALRNCLLTSDLTVRIGDYGLAHSNYKEDYYLTPERLWIPLRWAAPELLGELHGTFMVVDQSRESNIWSLGVTLWELFEFGAQPYRHLSDEEVLAFVVRQQHVKLARPRLKLPYADYWYDILQSCWRPPAQRPSASDLQLQLTYL
As for B1, the “in vitro kinase assay (32P autoradiography)” value in series [1] is listed as “LMTK3 directly phosphorylates ... FoxO3a”. Moreover, the “in vitro phosphorylation followed by in vitro proteasome degradation assay” value in series [2] is “phosphorylation of ERα by LMTK3 (FIG. 20d) rescued ERα from in vitro proteasome-mediated degradation (FIG. 20e)”. In series [3], the “in vitro kinase assay, PKC phosphorylation of histone” value was “LMTK3 inhibits the ability of PKC to phosphorylate histone”.
